{"source": "paper PMC314469", "about": "“Protein Interaction Networks by Proteome Peptide Scanning” (PLoS Biology, 2004)", "key": {"[1]": {"target": "amphyphisin SH3 (AMPH_HUMAN) (UniProt P49418)", "experiment": "SPOT array"}, "[2]": {"target": "endophilin SH3 (SH3G2_HUMAN) (UniProt Q99962)", "experiment": "SPOT array"}}, "data": [{"substance": "P46781 11-24", "values": [{"measurement": "normalised SPOT signal, Boehringer light units (BLU); mean over the file's lines of this peptide", "setting": "[1]", "result": 245}, {"measurement": "normalised SPOT signal, Boehringer light units (BLU); mean over the file's lines of this peptide", "setting": "[2]", "result": 269}]}]}
